Experimental data reported in paper PMC4546533.
pKd: −log10 of the molar value.

Legend:
[1] = target: MmpL3-D1 (MmpL3 residues 32 – 187) (Mycobacterium tuberculosis) (UniProt P9WJV5); experiment: BLI
[2] = target: MmpL11-D1 (MmpL11 residues 41 – 187) (Mycobacterium tuberculosis) (UniProt P9WJT9); experiment: BLI
UniProt P9WJT9, sequence (P9WJT9 41-187): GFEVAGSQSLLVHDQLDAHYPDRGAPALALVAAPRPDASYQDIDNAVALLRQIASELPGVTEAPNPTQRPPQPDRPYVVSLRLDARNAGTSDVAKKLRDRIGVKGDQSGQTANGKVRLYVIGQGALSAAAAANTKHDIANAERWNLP

UniProt P9WJV5, sequence (P9WJV5 32-187): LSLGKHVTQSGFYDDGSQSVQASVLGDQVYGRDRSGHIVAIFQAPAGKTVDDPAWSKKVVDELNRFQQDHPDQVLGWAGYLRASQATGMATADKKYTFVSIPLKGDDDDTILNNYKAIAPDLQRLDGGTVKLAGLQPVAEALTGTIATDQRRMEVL

Row | Substance | pKd [1] | pKd [2]
1 | MmpL3-D2 (MmpL3 residues 419 – 560) (from UniProt P9WJV5 419-560) (domain or fragment) | 5.39 | 
2 | MmpL11-D2 (MmpL11 residues 390 – 529) (from UniProt P9WJT9 390-529) (domain or fragment) |  | 5.35
